Assays:
T cell proliferation = T cell proliferation assay (CD3/CD28 stimulated); assay type: cell-based, human; conditions: CD3/CD28 stimulated cultures; read-out: EC50 inhibition of T cell proliferation
Experimental: MCT1, MCT2, MCT4, and BSG (CD147) expression were measured in unstimulated and stimulated leukocytes from two different donors. For the “stimulated” condition, cells were CD3/CD28 activated for 3 days. Stimulated cells were tested for inhibition of proliferation by AZ3965.
Human T cell proliferation.
(§1) Inhibition of T cell proliferation, inflammatory cytokine production, and allogeneic activation. […] An anti-MCT1 antibody or antibody fragment of the invention may also be tested for its ability to inhibit the production of inflammatory cytokines, relative to controls, in stimulated T cells on day 3 post-stimulation. MCT1 Ab1As with CD3/CD28 activation, MCT1 Ab1 inhibited allogeneic activation by 50-60% in a human mixed lymphocyte reaction (see, e.g., FIG. 17).

[1] = biological target: T1, MCT1 transport of lactate (Homo sapiens, UniProt P53985); assay: lactate FLIPR assay; assay type: cell-based; conditions: activated T cells; FLIPR Tetra, BCECF; read-out: Kd for block of lactate transport
T1 construct: endogenous in cells
T1 sequence (P53985 1-500): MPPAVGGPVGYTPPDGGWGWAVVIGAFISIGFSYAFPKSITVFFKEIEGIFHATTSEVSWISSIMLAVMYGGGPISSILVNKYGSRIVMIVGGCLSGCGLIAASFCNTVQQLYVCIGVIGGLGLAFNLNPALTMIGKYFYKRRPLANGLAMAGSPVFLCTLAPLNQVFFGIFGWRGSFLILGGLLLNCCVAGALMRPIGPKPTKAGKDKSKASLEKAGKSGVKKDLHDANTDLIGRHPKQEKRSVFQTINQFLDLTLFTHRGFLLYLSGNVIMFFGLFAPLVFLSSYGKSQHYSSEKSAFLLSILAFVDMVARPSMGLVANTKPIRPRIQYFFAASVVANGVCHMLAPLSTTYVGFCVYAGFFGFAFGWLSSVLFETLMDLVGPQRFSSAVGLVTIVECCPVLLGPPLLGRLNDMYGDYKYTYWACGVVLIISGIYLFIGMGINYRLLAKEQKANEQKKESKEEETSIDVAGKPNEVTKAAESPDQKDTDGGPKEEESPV
Description: Effects on lactate transport.
Inhibition of lactate transport.

[2] = tested on: allogeneic activation / T cell proliferation; assay: human mixed lymphocyte reaction (MLR); assay type: cell-based
Description: Human mixed lymphocyte reaction (MLR).
as §1

[3] = biological target: T2, MCT1 on the surface of human PBMCs (Homo sapiens, UniProt P53985); assay: flow cytometry binding to PBMCs, human
T2 construct: endogenous in cells; host or cells: human PBMCs (unstimulated and stimulated)
T2 sequence (P53985 1-500): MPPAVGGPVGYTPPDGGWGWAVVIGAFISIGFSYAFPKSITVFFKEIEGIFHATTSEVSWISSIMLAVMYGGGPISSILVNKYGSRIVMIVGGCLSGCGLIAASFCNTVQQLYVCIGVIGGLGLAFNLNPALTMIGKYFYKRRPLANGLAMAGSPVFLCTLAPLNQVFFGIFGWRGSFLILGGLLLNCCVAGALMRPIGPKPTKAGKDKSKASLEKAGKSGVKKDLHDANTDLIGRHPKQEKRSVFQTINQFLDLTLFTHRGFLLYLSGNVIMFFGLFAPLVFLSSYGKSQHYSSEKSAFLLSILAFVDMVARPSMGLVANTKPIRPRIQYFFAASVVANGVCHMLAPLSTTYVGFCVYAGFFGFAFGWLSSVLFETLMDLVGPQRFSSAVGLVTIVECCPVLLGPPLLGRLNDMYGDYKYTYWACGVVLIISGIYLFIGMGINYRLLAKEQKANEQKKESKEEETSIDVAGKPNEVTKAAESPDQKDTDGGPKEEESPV
Description: (§2) FIG. 12A-D show the cross-reactivity of MCT1 Ab1 as assessed via flow cytometry measurements of binding to MCT1 on the surface of different species' PBMCs.
(§3) Binding affinity and MCT1 cross-reactivity. […] MCT1 Ab1 is also highly cross-reactive with cynomolgus (cyno) and rabbit MCT1, but not with rodent MCT1 (FIG. 12A-D).

cynomolgus MCT1 = assay: flow cytometry binding to PBMCs, cynomolgus
Description: as §2, §3

rabbit MCT1 = assay: flow cytometry binding to PBMCs, rabbit
Description: as §2, §3

rat MCT1 = biological target: T3, rat MCT1 (Rattus norvegicus, UniProt P53987); assay: flow cytometry binding to PBMCs, rat
T3 construct: endogenous in cells; host or cells: rat PBMCs
T3 sequence (P53987 1-494): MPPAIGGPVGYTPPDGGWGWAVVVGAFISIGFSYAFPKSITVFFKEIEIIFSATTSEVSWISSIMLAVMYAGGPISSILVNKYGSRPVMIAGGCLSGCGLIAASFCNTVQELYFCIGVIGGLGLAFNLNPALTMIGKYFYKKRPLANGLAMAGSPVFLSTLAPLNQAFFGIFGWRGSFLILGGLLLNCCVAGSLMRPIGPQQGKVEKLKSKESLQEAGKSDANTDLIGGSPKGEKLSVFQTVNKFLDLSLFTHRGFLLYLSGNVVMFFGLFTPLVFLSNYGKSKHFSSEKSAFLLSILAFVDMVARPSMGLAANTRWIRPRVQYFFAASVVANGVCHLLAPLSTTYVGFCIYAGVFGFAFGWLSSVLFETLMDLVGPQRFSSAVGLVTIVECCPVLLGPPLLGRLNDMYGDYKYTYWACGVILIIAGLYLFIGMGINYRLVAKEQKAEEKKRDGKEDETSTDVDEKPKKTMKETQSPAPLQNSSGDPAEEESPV
Description: as §2, §3

MCT1 on T cells = biological target: T4, MCT1 on T cells (Homo sapiens, UniProt P53985); assay: staining of naive and activated T cells; assay type: binding
T4 construct: endogenous in cells
T4 sequence (P53985 1-500): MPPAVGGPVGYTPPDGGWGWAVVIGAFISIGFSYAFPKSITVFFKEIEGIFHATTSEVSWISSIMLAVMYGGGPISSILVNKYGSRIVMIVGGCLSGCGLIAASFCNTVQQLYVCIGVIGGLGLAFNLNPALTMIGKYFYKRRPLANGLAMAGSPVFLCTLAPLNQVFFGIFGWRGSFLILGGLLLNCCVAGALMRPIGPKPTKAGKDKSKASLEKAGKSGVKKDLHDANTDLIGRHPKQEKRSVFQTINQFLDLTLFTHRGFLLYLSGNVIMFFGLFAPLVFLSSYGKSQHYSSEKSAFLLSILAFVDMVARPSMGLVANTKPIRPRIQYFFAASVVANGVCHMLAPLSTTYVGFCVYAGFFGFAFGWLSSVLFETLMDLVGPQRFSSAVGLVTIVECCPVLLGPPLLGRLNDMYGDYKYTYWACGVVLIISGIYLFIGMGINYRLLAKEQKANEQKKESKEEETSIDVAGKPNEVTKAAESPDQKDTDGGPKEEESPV
Description: The only staining in FIG. 13A corresponds to nucleus staining, confirming the presence of the naïve T cells.
MCT1 Ab1 binding to activated T cells. […] This binding confirms the expression data presented in FIG. 2 and confirms the prediction based on mRNA analysis.

MCT1 = biological target: T5, MCT1 (Homo sapiens, UniProt P53985); assay: bromopyruvate toxicity assay (ATPlite); assay type: cell-based; conditions: bromopyruvate 150 μM; ATPlite; read-out: Kd for inhibition of bromopyruvate toxicity (protection from cell death)
T5 construct: HEK-293 WT cells only express MCT1/CD147 and no other MCTs as measured by RT-PCR; endogenous in cells; host or cells: HEK293T
T5 sequence (P53985 1-500): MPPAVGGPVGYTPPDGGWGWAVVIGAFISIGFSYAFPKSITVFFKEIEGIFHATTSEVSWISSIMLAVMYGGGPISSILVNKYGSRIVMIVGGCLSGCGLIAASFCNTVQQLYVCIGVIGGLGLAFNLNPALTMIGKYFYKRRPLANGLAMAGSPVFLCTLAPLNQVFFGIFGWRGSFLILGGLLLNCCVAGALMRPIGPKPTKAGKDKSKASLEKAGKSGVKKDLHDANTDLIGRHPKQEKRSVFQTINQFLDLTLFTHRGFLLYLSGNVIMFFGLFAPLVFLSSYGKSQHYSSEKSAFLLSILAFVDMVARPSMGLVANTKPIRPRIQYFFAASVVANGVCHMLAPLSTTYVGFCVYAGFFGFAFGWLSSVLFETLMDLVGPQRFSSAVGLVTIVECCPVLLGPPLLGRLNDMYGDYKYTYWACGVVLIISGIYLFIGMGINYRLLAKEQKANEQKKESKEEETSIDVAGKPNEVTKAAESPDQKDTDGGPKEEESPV
Experimental: Inhibition of bromopyruvate toxicity. Since MCT1 is the sole transporter necessary for the in vitro efficacy of the anti-cancer toxin bromopyruvate (Reference 66), a second cell-based functional assay was developed to measure the in vitro killing of cells using this toxin at a concentration of 150 μM.
HEK293T cells are pre-treated with anti-MCT1 antibody or small molecular MCT1 inhibitor at 37° C. for 1 hour. Cells are then incubated with a cytotoxic reagent 3-bromopyruvate (3-BrPy) at concentrations that rand from 25 to 500 μM for 2 to 6 hours. ATP from dying cells will be quantified using a commercial viability kit (ATPlite, PerkinElmer) in a 96-well plate and viability measured using luminescence. Reduction of ATP production indicates functionality of the antibody. A positive control antibody is the mouse or chimeric antibody before humanization. A negative control cell line is MCT1/CD147 double knockout 293T cells. Using this assay functional, i.e., antagonistic anti-MCT1 antibodies may be identified.

human T cells = assay: metabolomics of treated T cells; assay type: cell-based; conditions: preliminary
[4] = tested on: human RBC lactate transport; assay: FLIPR lactate transport in purified human RBCs; assay type: cell-based; conditions: 10 mM lactate
Experimental: MCT1 Ab1 and AZ3965 were used to inhibit MCT1 lactate transport in purified human RBCs using FLIPR based transport assays (REF. 1, 2) in the presence of 10 mM lactate. The levels of lactate transport were compared to a no lactate control condition and a no inhibitor condition in the presence of lactate.

xeno-GVHD = assay: xeno-GvHD model with anti-MCT1 antibodies (human PBMC into NSG mice); assay type: in vivo, mouse
Experimental: In this model of GvHD animals male NSG mice are treated with sub-lethal irradiation (250 rad), and afterward these mice receive 2.5×10^6 of fresh human PBMC (day 0). First dose of anti-human MCT1 is combined with cells and injected i.v. The follow up treatment schedule is weekly (day 7, 14 and 21, IP).
For re-challenge experiments previously treated with anti-MCT1 (days 0, 7, 14, 21) NSG mice receive a second dose of 2.5×10^6 of previously frozen human PBMC of the same donor (day 42). Survival and weight loss of these mice is monitored with no additional antibody treatments and compared to a new cohort of NSG mice receiving same donor PBMCs.
100 ul of total blood is used for analysis: blood was stained using a Stain-1 wash protocol to allow absolute cell count with Ab panel below followed by FACS lysis buffer 1× (BD Bioscience, #349202); whole blood was incubated with a 10× antibody (shown below) and after 30 min, the blood was lysed in a large volume of 1× lysis buffer (at least 6 times) following manufacturer instructions; or blood was first lysed with ACK (10 min), washed in PBS and stained with antibody mix, exactly as described in the table below.

[5] = repeated dosing safety in cynomolgus monkeys; assay type: in vivo, cynomolgus monkey
Description: In order to further corroborate the safety and efficacy of anti-MCT1 antibodies for human therapy we administered dosages of 50 mpk of anti-human MCT1 antibodies to cynomolgus monkeys. As disclosed in this example and corroborated by the figure referenced herein no toxicity was observed after 30 days.
As shown in FIG. 23 cynomolgus red blood cells (RBCs) express high levels of MCT1. Based thereon we tested the effects of antagonistic anti-MCT1 antibodies in cyno monkeys and in particular looked at any effects on RBCs after anti-MCT1 antibody dosing. Also, we determined whether cynos could tolerate a therapeutic effective dosage of the antibody.

PK in cynos = assay type: in vivo, cynomolgus monkey; conditions: preliminary PK data
CD4+ and CD8+ T cells = assay: proliferation of CD4+ and CD8+ T cells; assay type: cell-based; conditions: different antibody concentrations

B1: MCT1 Ab1: rat anti-human MCT1 monoclonal antibody (rat/human chimera); VH/VL SEQ ID NO: 2/3 (antibody, V domains shown)
VH: QVQLKATGPGLVQPTQTLSITCTVSGFSLTNYHLQWVRQTPGKGLEWMGFIRSSGNTEYNSEFKSRLSISRDTSKNQVFLKMNSLKTDDTGVYYCARNSWYHGTYYSPGYYVMDAWGQGASVTVSS
VL: NIHLTQSPSLLSASVGDRVTLSCKGSQNINNYLAWFQQKFGETPKLLIYNRHNLQTGIPSRFSGSGSGTDYTLTINSLQPEDVATYFCYQYSDGYTFGAGTKLELK
modifications: MCT1 Ab1 (INX310) VH; MCT1 Ab1 (INX310) VL
EC50 (T cell proliferation): 1.3 nM | Kd [1]: 7.6 nM | inhibition of allogeneic activation [2]: 50-60% | binding to MCT1 on PBMCs [3]: binds to MCT1 on the surface of human PBMCs | binding to MCT1 on PBMCs (cynomolgus MCT1): binds to cynomolgus MCT1 | binding to MCT1 on PBMCs (rabbit MCT1): binds to rabbit MCT1 | binding to MCT1 on PBMCs (rat MCT1): does not bind to rat MCT1 | staining of activated T cells (MCT1 on T cells; CD3/CD28 activated cells, day 3): stains the surface of CD3/CD28 activated cells on day 3 | staining of naive T cells (MCT1 on T cells; naïve cells): does not stain naïve cells | Kd (MCT1): 1.2 nM | metabolomics findings in treated T cells (human T cells): improved generation of ATP and NADH, along with increased oxidative metabolism and viability | lactate transport in human RBCs [4]: unaffected | number of CD3+, CD4+ and CD8+ effector T cells (xeno-GVHD; compared to NSG mice treated with control antibody): significant decrease in the number of CD3^+, CD4^+ and CD8^+ effector T cells | Tr1 cells (xeno-GVHD; compared to control antibody): increases in Tr1 cells | MABEL in xeno-GVHD (xeno-GVHD; mouse, in vivo): ~1 mpk | survival, long-term protection and tolerance (xeno-GVHD; re-challenge at day 42 with PBMC of the same donor): increased survival, long-term protection and tolerance induction | histological findings (heart, muscle, testis and eye, H & E) ([5]; 4 weekly doses at 50 mpk): no adverse histological findings | in-life toxicity ([5]; 30 days, 4 weekly doses at 50 mpk): no significant in-life toxicity | RBC mass after dosing ([5]; cynos, 50 mpk): initial reduction of RBC mass after dosing this resolves after a short time | tolerability of repeated dosing ([5]; cynos, 50 mpk): tolerate repeated dosing | dose rate at which the RBC sink is saturated (PK in cynos): ≥ 5 mpk | proliferation of CD4+ and CD8+ T cells (CD4+ and CD8+ T cells): inhibited the proliferation of CD4^+ and CD8^+ T cells
